Results taken from patent publication US6709650B1, “Spray-dried microparticles and their use as therapeutic vehicles” (Elam Drug Delivery Limited, priority 1991, dated 2004).

Experiments:
[1] = soluble HSA microcapsules dissolved in water or extracted; TLC or HPLC
Experimental: The beclomethasone was extracted from the microcapsules by the precipitation of the HSA in 10% TCA, and the supernatant was extracted into ethanol. The ethanol extract was analysed using HPLC, at a wavelength 242 nm.
The soluble microcapsules thus made were sampled, characterised and analysed for drug content.

[2] = Structural integrity of protein after spray-drying (gel filtration, tryptic peptide mapping, reverse phase, capillary electrophoresis); type: physicochemical; settings: microparticles dissolved in aqueous medium, compared with original material
Experimental: Under the conditions described, with a nozzle pressure of 7.5 bar, microparticles were produced with a particle size of 4.7 μm. These soluble microparticles were smooth and spherical with less than 1% of the particles over a particle size of 6 μm. The microparticles were dissolved in aqueous medium and the molecular weight of the HSA determined by gel filtration chromatography. The resultant chromatograms for the original and spray-dried HSA are shown (FIG. 1).
(§1) Alpha-1 antitrypsin derived from human serum was spray-dried under conditions similar to Example 1 with an inlet temperature of 150° C. and an outlet temperature of 80° C. In all other respects the conditions for drying were the same as Example 1. […] The microparticles were dissolved in aqueous medium and analysed for retention of protein structure and normal trypsin inhibitory activity, then compared to the original freeze dried starting material.

trypsin = biological target: T1, trypsin (Bos taurus, UniProt P00760); assay: Trypsin inhibitory activity of spray-dried alpha-1 antitrypsin vs freeze dried starting material; type: biochemical; settings: within the experimental error
T1 construct: gene PRSS1
T1 sequence (P00760 24-246): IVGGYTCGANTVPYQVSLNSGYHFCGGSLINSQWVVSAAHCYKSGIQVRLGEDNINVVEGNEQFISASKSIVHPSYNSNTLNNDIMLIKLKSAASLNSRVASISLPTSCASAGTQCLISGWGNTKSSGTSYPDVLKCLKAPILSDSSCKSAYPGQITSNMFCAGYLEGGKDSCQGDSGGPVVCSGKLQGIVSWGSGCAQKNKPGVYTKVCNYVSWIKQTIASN
Experimental: as §1

| Compound | state of the active compound on dissolution of the microcapsules [1] | structural change of the protein after spray-drying [2] | retention of inhibitory activity after spray-drying (trypsin) |
| --- | --- | --- | --- |
| C[C@H]1C[C@H]2[C@@H]3CCC4=CC(=O)C=C[C@]4(C)[C@@]3(Cl)[C@@H](O)C[C@]2(C)[C@@]1(O)C(=O)CO [beclomethasone] | majority of the active compound was in the free state | – | – |
| Alpha-1 antitrypsin: Alpha-1 antitrypsin derived from human serum, spray-dried to soluble microparticles of mean size 4.5 μm | – | no significant structural changes | full retention of inhibitory activity |
